Common to all, as to conditions: remark: other sources report otherwise
In experiment [1] the target is T1, biotinylated full-length human IGF-I receptor, captured on streptavidin (human), P08069. As to the kind of experiment: similar ELISA binding titration on human IGF-I receptor. (In general: In an ELISA, binding on a coated surface is turned into a signal by an enzyme label.)
The target of experiment [2] is human IGF-I receptor on human tumor cells (human), P08069. As to the kind of experiment: IGF-I displacement assay on MCF-7 cells at 4° C., 10-100 µg/mL antibody, capture ELISA of the lysate.
Experiment [3] shares this target. In words: IGF-I displacement assay on MCF-7 cells at 37° C., 10-100 µg/mL antibody, capture ELISA of the lysate.
Experiment [4] deals with T1, biotinylated full-length human IGF-I …. In words: ELISA titration on biotinylated human IGF-I receptor captured on streptavidin; non-linear regression for one-site binding.

From US20100260678A1 come the findings set out here.

Usually Kd stands for the constant that tells how readily two partners part at equilibrium.

B1: Fab fragment of EM164 antibody (Fab, V domains shown)
VH: QVQLQQSGAELVKPGASVKLSCKASGYTFTSYWMHWVKQRPGQGLEWIGEINPSNGRTNYNEKFKRKATLTVDKSSSTAYMQLSSLTSEDSAVYYFARGRPDYYGSSKWYFDVWGAGTTVTVS
VL: DVLMTQTPLSLPVSLGDQASISCRSSQSIVHSNVNTYLEWYLQKPGQSPKLLIYKVSNRFSGVPDRFSGSGSGTDFTLRISRVEAEDLGIYYCFQGSHVPPTFGGGTKLEIKR
modifications: here or on the partner: biotinylated with PEO-maleimide-biotin reagent (sites not given)
Regarding B1, the Kd in experiment [1] came out at 0.3 nM.

B2: murine anti-IGF-I receptor antibody EM164 (antibody, V domains shown)
VH: B1 VH
VL: B1 VL
As for B2, the percent displacement of pre-bound biotinylated IGF-I in experiment [2] is 50%; in experiment [3], 90%. The molecule also came in with a Kd in experiment [4] of 0.1 nM.
